Patent US20250027068

Biological target: pooled human IgG (human IgG1, 2, 3 and 4)

B1: PRT-437 (protein)
chain: MSQTEDSESLQRLRDIEDFQAEKKKQNVVYTKWLDGVDVKDHDFRKIVDGNEAYYATPLLNGRGFYDINKDFNRDSDKCAAAVAANMFHYWLDRNRDNVDRFLRQNPEKHGIIELPDGQLKLSDFLNTYESDDGYRDKSKLFDFISNNFNGPVWTDKLLDNYINGYAYNYKYGRTIEDPTKNTSKINFFKEVFNEKILTNNHSIRNQNEFSVLLSEALYTGKAIGLSYGPAGLRHSLGHIISVWGADLDADGNVVAIYVTDSDDKKLTIGDERVGLKRYKISTDDEGRLRLTAYEETHNTGGQIRGLWTLDTGKQAWADYFDKTEQTGTDQAEQ
Enzyme Activity Endpoint Assay (purified): Fab′2: 445 ng/µL | Enzyme Activity Endpoint Assay (purified): Fc: 306 ng/µL | Enzyme Activity Endpoint Assay (purified): IgG: 0 ng/µL | Enzyme Activity Endpoint Assay (purified): scIgG: 263 ng/µL | Enzyme Activity Endpoint Assay: Fab′2: 445 ng/µL | Enzyme Activity Endpoint Assay: Fc: 306 ng/µL | Enzyme Activity Endpoint Assay: IgG: 0 ng/µL | Enzyme Activity Endpoint Assay: scIgG: 263 ng/µL

B2: PRT-383 (protein)
chain: MVTSVWTKGVTPPTNFTYGEDVLHAPYVANQGWYDITKTFNGKDDLLCGAATAGNMLHWWFDQNKEQIENYLKKHPEKQKINFNGEQMFDVKEAIDTKDSQLDSKLFDYFKEKAFPYLSTKHLGVFPDHVIDMFINGYRLSLTNHGPTPVKRGSKDPRGGIFDAVFTRGDQSKLLTNRHDFKEKTLKEISDLIKQELTEGKALGISHTYANVRINHVINLWGADFDAEGNLEAIYVTDSDSNASIGMKKYFVGVNSNGKVAISAKEIEEDNIGAQVLGLFTLSTGQDIWNQTN
Enzyme Activity Endpoint Assay (purified): Fab′2: 581 ng/µL | Enzyme Activity Endpoint Assay (purified): Fc: 379 ng/µL | Enzyme Activity Endpoint Assay (purified): IgG: 0 ng/µL | Enzyme Activity Endpoint Assay (purified): scIgG: 230 ng/µL | Enzyme Activity Endpoint Assay: Fab′2: 581 ng/µL | Enzyme Activity Endpoint Assay: Fc: 379 ng/µL | Enzyme Activity Endpoint Assay: IgG: 0 ng/µL | Enzyme Activity Endpoint Assay: scIgG: 230 ng/µL

B3: PRT-391 (protein)
chain: MVTSVWTKGVTPPTNFTYGEDVLHAPYVANQGWYDITKTFNGKDDLLCGAATAGNMLHWWFDQNKEQIENYLKKHPEKQKINFNGEQMFDVKEAIDTKDSQLDSKLFEYFKEKAFPYLSTKHLGVFPDHVIDMFINGYRLSLTNHGPTPVKRGSKDKRGGIFDAVFTRGDQSKLLTNRHDFKEKTLKEISDLIKQELTEGKALGISHTYANVRINHVINLWGADFDAEGNLEAIYVTDSDSNASIGMKKYFVGVNSNGKVAISAKEIEEDNIGAQVLGLFTLSTGQDIWNQTN
Enzyme Activity Endpoint Assay (purified): Fab′2: 498 ng/µL | Enzyme Activity Endpoint Assay (purified): Fc: 361 ng/µL | Enzyme Activity Endpoint Assay (purified): IgG: 29 ng/µL | Enzyme Activity Endpoint Assay (purified): scIgG: 192 ng/µL | Enzyme Activity Endpoint Assay: Fab′2: 498 ng/µL | Enzyme Activity Endpoint Assay: Fc: 361 ng/µL | Enzyme Activity Endpoint Assay: IgG: 29 ng/µL | Enzyme Activity Endpoint Assay: scIgG: 192 ng/µL

B4: PRT-398 (protein)
chain: MVTSVWTKGVTPPADFTQGEDVFHAPYVANQGWYDITKTFNGKDDLLCGAATAGNMLHWWFDQNKEYIEAYLKKHPEKQKIMFGDQELLDVRKAINTKGSQKNSELFNYFRDKAFPNLSARRLGVMPDLVLDMFINGYYLNVTKTQTTDVNRTYQEKDKRGGIFDAVFTRGDQSKLLTSRHDFKEKGLKEISDLIKQELTEGKALGLSHTYANVRINHVINLWGADFDSDGNLKAIYVTDSDSNASIGMKKYDVGVNSAGKVAISAKEIKEDNIGAQVLGLFTLSTGQDIWNQTN
Enzyme Activity Endpoint Assay (purified): Fab′2: 555 ng/µL | Enzyme Activity Endpoint Assay (purified): Fc: 370 ng/µL | Enzyme Activity Endpoint Assay (purified): IgG: 0 ng/µL | Enzyme Activity Endpoint Assay (purified): scIgG: 196 ng/µL | Enzyme Activity Endpoint Assay: Fab′2: 555 ng/µL | Enzyme Activity Endpoint Assay: Fc: 370 ng/µL | Enzyme Activity Endpoint Assay: IgG: 0 ng/µL | Enzyme Activity Endpoint Assay: scIgG: 196 ng/µL

B5: PRT-407 (protein)
chain: MVTSVWTKGVTPPADFTQGEDVFHAPYVANQGWYDITKTFNGKDDLLCGAATAGNMLHWWFDQNKEYIEAYLKKHPEKQKIIFGDQELLDVRKAINTKGSQKNSELFNYFRDKAFPNLSARRLGVMPDLVLDMFINGYYLNVTKTQTTDVNRTYQEKDKRGGIFDAVFTRGDQSKLLTSRHDFKEKGLKEISDLIKQELTEGKALGLSHTYANVRINHVINLWGADFDSDGNLKAIYVTDSDSNASIGMKKYFVGVNSAGKVAISAKEIKEDNIGAQVLGLFTLSTGQDIWNQTN
Enzyme Activity Endpoint Assay (purified): Fab′2: 209 ng/µL | Enzyme Activity Endpoint Assay (purified): Fc: 277 ng/µL | Enzyme Activity Endpoint Assay (purified): IgG: 90 ng/µL | Enzyme Activity Endpoint Assay (purified): scIgG: 396 ng/µL | Enzyme Activity Endpoint Assay: Fab′2: 209 ng/µL | Enzyme Activity Endpoint Assay: Fc: 277 ng/µL | Enzyme Activity Endpoint Assay: IgG: 90 ng/µL | Enzyme Activity Endpoint Assay: scIgG: 396 ng/µL

B6: PRT-399 (protein)
chain: MVTSVWTKGVTPPADFTQGEDVFHAPYVANQGWYDITKTFNGKDDLLCGAATAGNMLHWWFDQNKEYIEAYLKKHPEKQKIMFGDQELLDVRKAINTKGSQKNSELFNYFRDKAFPNLSARRLGVMPDLVLDMFINGYYLNVTKTQTTDVNRTYQEKDKRGGIFDAVFTRGDQSKLLTSRHDFKEKGLKEISDLIKQELTEGKALGLSHTYANVRINHVINLWGADFDSDGNLKAIYVTDSDSNASIGMKKYVVGVNSAGKVAISAKEIKEDNIGAQVLGLFTLSTGQDIWNQTN
Enzyme Activity Endpoint Assay (purified): Fab′2: 0 ng/µL | Enzyme Activity Endpoint Assay (purified): Fc: 0 ng/µL | Enzyme Activity Endpoint Assay (purified): IgG: 1580 ng/µL | Enzyme Activity Endpoint Assay (purified): scIgG: 0 ng/µL | Enzyme Activity Endpoint Assay: Fab′2: 0 ng/µL | Enzyme Activity Endpoint Assay: Fc: 0 ng/µL | Enzyme Activity Endpoint Assay: IgG: 1580 ng/µL | Enzyme Activity Endpoint Assay: scIgG: 0 ng/µL

B7: PRT-406 (protein)
chain: MVTSVWTKGVTPPADFTQGEDVFHAPYVANQGWYDITKTFNRKDDLLCGAATAGNMLHWWFDQNKEYIEAYLKKHPEKQKIMFGDQELLDVRKAINTKGSQKNSELFNYFRDKAFPNLSARRLGVMPDLVLDMFINGYYLNVTKTQTTDVNRTYQEKDKRGGIFDAVFTRGDQSKLLTSRHDFKEKGLKEISDLIKQELTEGKALGLSHTYANVRINHVINLWGADFDSDGNLKAIYVTDSDSNASIGMKKYFVGVNSAGKVAISAKEIKEDNIGAQVLGLFTLSTGQDIWNQTN
Enzyme Activity Endpoint Assay (purified): Fab′2: 435 ng/µL | Enzyme Activity Endpoint Assay (purified): Fc: 299 ng/µL | Enzyme Activity Endpoint Assay (purified): IgG: 135 ng/µL | Enzyme Activity Endpoint Assay (purified): scIgG: 108 ng/µL | Enzyme Activity Endpoint Assay: Fab′2: 435 ng/µL | Enzyme Activity Endpoint Assay: Fc: 299 ng/µL | Enzyme Activity Endpoint Assay: IgG: 135 ng/µL | Enzyme Activity Endpoint Assay: scIgG: 108 ng/µL

B8: PRT-414 (protein)
chain: MTITSVWTKGVTPPTPEDFRYNNEDVLHAPYVANQGWYDITKTFDGKDNLLCGAATAGNMLHWWFDQNKEEIERYLKKHPEKQKIIFGNQELFDVKAAIDTKDSQTNSKLFNYFRDKAFPNLSARQLGVMPDLVLDMFINGYYLNLGKTQSTDVNRPYQDKDKRGGIFDAVFTRGDQTTLLTARHDLKNKGLNEISDLIKQELTEGKALALSHTYANVRINHVINLWGADFDAEGNLIAIYVTDSDANASIGMKKYFVGVNANGKVAISAKKIEGDNIGAQVLGLFTLSTGQDIWQKLS
Enzyme Activity Endpoint Assay (purified): Fab′2: 496 ng/µL | Enzyme Activity Endpoint Assay (purified): Fc: 341 ng/µL | Enzyme Activity Endpoint Assay (purified): IgG: 77 ng/µL | Enzyme Activity Endpoint Assay (purified): scIgG: 129 ng/µL | Enzyme Activity Endpoint Assay: Fab′2: 496 ng/µL | Enzyme Activity Endpoint Assay: Fc: 341 ng/µL | Enzyme Activity Endpoint Assay: IgG: 77 ng/µL | Enzyme Activity Endpoint Assay: scIgG: 129 ng/µL

B9: PRT-423 (protein)
chain: MTITSVWTKGVTPPTPEDFRYNNEDVLHAPYVANQGWYDITKTFDGKDNLLCGAATAGNMLHWWFDQNKEEIERYLKKHPEKQKIIFNNQELFDVKAAIDTKDSQTNSKLFNYFRDKAFPNLSARQLGVMPDLVLDMFINGYYLNLGKTQSTDVNRPYQDKDKRGGIFDAVFTRGDQTTLLTARHDLKNKGLNEISDLIKQELTEGKALALSHTYANVRINHVINLWGADFDAEGNLIAIYVTDSDANASIGMKKYFVGRNANGKVAISAKKIEGDNIGAQVLGLFTLSTGQDIWQKLS
Enzyme Activity Endpoint Assay (purified): Fab′2: 398 ng/µL | Enzyme Activity Endpoint Assay (purified): Fc: 0 ng/µL | Enzyme Activity Endpoint Assay (purified): IgG: 1660 ng/µL | Enzyme Activity Endpoint Assay (purified): scIgG: 0 ng/µL | Enzyme Activity Endpoint Assay: Fab′2: 398 ng/µL | Enzyme Activity Endpoint Assay: Fc: 0 ng/µL | Enzyme Activity Endpoint Assay: IgG: 1660 ng/µL | Enzyme Activity Endpoint Assay: scIgG: 0 ng/µL

B10: PRT-415 (protein)
chain: MTITSVWTKGVTPPTPEDFRYNNEDVLHAPYVANQGWYDITKTFDGKDNLLCGAATAGNMLHWWFDQNKEEIERYLKKHPEKQKIIFNNQELFDVKAAIDTKDSQTNSKLFNYFLDKAFPNLSARQLGVMPDLVLDMFINGYYLNLGKTQSTDVNRPYQDKDKRGGIFDAVFTRGDQTTLLTARHDLKNKGLNEISDLIKQELTEGKALALSHTYANVRINHVINLWGADFDAEGNLIAIYVTDSDANASIGMKKYFVGVNANGKVAISAKKIEGDNIGAQVLGLFTLSTGQDIWQKLS
Enzyme Activity Endpoint Assay (purified): Fab′2: 46 ng/µL | Enzyme Activity Endpoint Assay (purified): Fc: 225 ng/µL | Enzyme Activity Endpoint Assay (purified): IgG: 164 ng/µL | Enzyme Activity Endpoint Assay (purified): scIgG: 630 ng/µL | Enzyme Activity Endpoint Assay: Fab′2: 46 ng/µL | Enzyme Activity Endpoint Assay: Fc: 225 ng/µL | Enzyme Activity Endpoint Assay: IgG: 164 ng/µL | Enzyme Activity Endpoint Assay: scIgG: 630 ng/µL

B11: PRT-422 (protein)
chain: MTITSVWTKGVTPPTPEDFRYNNEDVLHAPYVANQGWYDITKTFDGKDNLLCGAATAGNMLHWWFDQNKEEIERYLKKHPEKQKIIFNNQELFDVKAAIDTKDSQTNSKLFNYFRDKAFPNLSARQLGVMPDLVLDMFINGYYLNLGKTQSTDVNRPYQDKDKRGGIFDAVFTRGDQTTLLTARHDLKNKGLNEISDLIKQELTEGKALALSHTYANVRINHVINLWGADFDAEGNLIAIYVTDSDANPSIGMKKYFVGVNANGKVAISAKKIEGDNIGAQVLGLFTLSTGQDIWQKLS
Enzyme Activity Endpoint Assay (purified): Fab′2: 494 ng/µL | Enzyme Activity Endpoint Assay (purified): Fc: 348 ng/µL | Enzyme Activity Endpoint Assay (purified): IgG: 69 ng/µL | Enzyme Activity Endpoint Assay (purified): scIgG: 136 ng/µL | Enzyme Activity Endpoint Assay: Fab′2: 494 ng/µL | Enzyme Activity Endpoint Assay: Fc: 348 ng/µL | Enzyme Activity Endpoint Assay: IgG: 69 ng/µL | Enzyme Activity Endpoint Assay: scIgG: 136 ng/µL
